For data set [1], the target named is T1, Sox2 DBD, isolated, unlabelled (UniProt P48431 37-120). Nature of the data set: smFRET titration; 200 mM salt (table; text gives 165 mM KCl); smFRET: 165 mM KCl or 200 mM salt (Supplementary Table 4), buffer details not in material; NMR: 20 mM NaH2PO4, 50 mM NaCl, 5 mM DTT, pH 5.5, 15 C. Conditions: protein: recombinant; tags: His6-SUMO removed by ULP1; label: Cy3B and CF660R, one on each 5' end; blunt.

Data set [2] addresses T2, Sox2 full-length, unlabelled (UniProt P48431 1-317). Described as above. As to conditions: protein: recombinant; tags: His6-SUMO removed by ULP1; label: Cy3B and CF660R, one on each 5' end; blunt.
The target in data set [3] is Sox2 DBD labelled at 37 and 120 (UniProt P48431 37-120, S37C;M120C). In words: smFRET titration; 200 mM salt; labelled protein; smFRET: 165 mM KCl or 200 mM salt (Supplementary Table 4), buffer details not in material; NMR: 20 mM NaH2PO4, 50 mM NaCl, 5 mM DTT, pH 5.5, 15 C. Conditions: protein: recombinant; tags: His6-SUMO removed by ULP1; blunt.
For data set [4], the target named is Sox2 full-length labelled in the C-IDR (UniProt P48431 1-317, M120C;S315C). In words: smFRET (C-IDR expands, E 0.43 to 0.28); smFRET: 165 mM KCl or 200 mM salt (Supplementary Table 4), buffer details not in material; NMR: 20 mM NaH2PO4, 50 mM NaCl, 5 mM DTT, pH 5.5, 15 C. As to conditions: protein: recombinant; tags: His6-SUMO removed by ULP1; blunt.
Data set [5] has as its target T2, Sox2 full-length, unlabelled. In words: NMR (1H15N HSQC CSP); 30 uM Sox2, 1.1-fold DNA, 50 mM NaCl, pH 5.5, 15 C; smFRET: 165 mM KCl or 200 mM salt (Supplementary Table 4), buffer details not in material; NMR: 20 mM NaH2PO4, 50 mM NaCl, 5 mM DTT, pH 5.5, 15 C. Conditions: protein: recombinant; tags: His6-SUMO removed by ULP1; blunt.
The target of data set [6] is T1, Sox2 DBD, isolated, unlabelled. In words: smFRET titration; 200 mM salt; smFRET: 165 mM KCl or 200 mM salt (Supplementary Table 4), buffer details not in material; NMR: 20 mM NaH2PO4, 50 mM NaCl, 5 mM DTT, pH 5.5, 15 C. Conditions: protein: recombinant; tags: His6-SUMO removed by ULP1; label: Cy3B and CF660R, one on each 5' end; blunt.
Data set [7] concerns the target T2, Sox2 full-length, unlabelled. The description is as above. As to conditions: protein: recombinant; tags: His6-SUMO removed by ULP1; label: Cy3B and CF660R, one on each 5' end; blunt.

T2 sequence (P48431 whole entry): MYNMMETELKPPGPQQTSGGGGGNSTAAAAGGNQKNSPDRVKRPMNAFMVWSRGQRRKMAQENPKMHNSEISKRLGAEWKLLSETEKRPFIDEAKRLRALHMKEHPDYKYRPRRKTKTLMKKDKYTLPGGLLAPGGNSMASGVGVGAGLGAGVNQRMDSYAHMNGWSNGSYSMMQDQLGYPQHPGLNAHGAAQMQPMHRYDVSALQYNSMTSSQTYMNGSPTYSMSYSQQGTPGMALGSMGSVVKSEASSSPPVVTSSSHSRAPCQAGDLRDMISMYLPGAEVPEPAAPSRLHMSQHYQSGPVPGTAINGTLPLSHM
T1 sequence (P48431 37-120): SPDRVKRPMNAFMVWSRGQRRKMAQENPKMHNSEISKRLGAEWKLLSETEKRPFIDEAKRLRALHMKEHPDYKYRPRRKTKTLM
Sequence of Sox2 full-length labelled in the C-IDR (P48431 whole entry M120C/S315C): as the sequence (P48431 whole entry) above, with M120C, S315C counted along it
Sequence of Sox2 DBD labelled at 37 and 120 (P48431 37-120 S37C/M120C): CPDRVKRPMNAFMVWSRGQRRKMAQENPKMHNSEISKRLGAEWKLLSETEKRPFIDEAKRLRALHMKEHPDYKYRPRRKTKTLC

B1: 15 bp specific DNA, labelled (dsDNA)
DNA 1: ACTCTTTGTTTGGAT
DNA 2: ATCCAAACAAAGAGT
modifications: 5' C6-amino linker on both strands
With B1, the Kd in data set [1] amounted to 0.3 ± 0.1 nM; in data set [2], 0.4 ± 0.2 nM.

B2: 30 bp specific DNA (dsDNA)
DNA 1: ATCCCATTAGCATCCAAACAAAGAGTTTTC
DNA 2: GAAAACTCTTTGTTTGGATGCTAATGGGAT
With B2, in data set [3], the Kd is 0.3 ± 0.2 nM.

B3: 15 bp specific DNA, unlabelled (dsDNA)
DNA 1: ACTCTTTGTTTGGAT
DNA 2: ATCCAAACAAAGAGT
B3: the binding result in data set [4] and in data set [5] was “binds” throughout.

B4: 15 bp nonspecific DNA, labelled (dsDNA)
DNA 1: TCTATCTGTGTATGT
DNA 2: ACATACACAGATAGA
modifications: 5' C6-amino linker on both strands
Consider B4, for which the Kd was 11 ± 4 nM in data set [6] and 6 ± 2 nM in data set [7].

The values are drawn from publication PMC10873366, “DNA binding redistributes activation domain ensemble and accessibility in pioneer factor Sox2”.
